Source: the supplement of paper PMC9170038

Tests used:
[1] = tested on: MS2 coat protein; test: apparent KD of MS2 coat protein, switch ON state; designed switch direction (-1 OFF switch, 1 ON switch): -1; higher = weaker reporter binding; details: FMN input: 0 or 200 uM; Eterna round: R93 (includes R88 designs)
Method in brief: (§1)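 Binding of SNAP-549-labelled MS2 coat protein was measured on designed RNA switches transcribed on-chip from Illumina sequencing clusters. The protein rose in twofold steps from 0.7 or 1.5 nM to 3 µM, with 0.8–1.5 h per step early on and 10–20 min per step later, in 100 mM Tris-HCl pH 7.5, 80 mM KCl, 4 mM MgCl2, without or with constant ligand. Each design's apparent KD is the median of fits to its normalised cluster binding curves.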

[2] = tested on: MS2 coat protein; test: apparent KD of MS2 coat protein, switch OFF state (with FMN for OFF switches, without FMN for ON switches); designed switch direction (-1 OFF switch, 1 ON switch): -1; higher = weaker reporter binding; details: FMN input: 0 or 200 uM; Eterna round: R93 (includes R88 designs)
Method in brief: as §1

[3] = tested on: MS2 coat protein; test: apparent KD of MS2 coat protein; designed switch direction (-1 OFF switch, 1 ON switch): 1; higher = weaker reporter binding
Method in brief: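 RNA switches sharing common flanks were transcribed by stalled E. coli RNA polymerase on Illumina chips. A doubling series of SNAP-549-labelled MS2 coat protein, from 0.7 or 1.5 nM to 3 µM, was applied in Tris-HCl pH 7.5 buffer with KCl, MgCl2, BSA, DTT, tRNA and Tween-20. Each step lasted 0.8–1.5 h at the bottom of the series and 10–20 min at the top. Normalised cluster fluorescence was curve-fitted, giving apparent KD as the per-design median over clusters.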

[4] = Eterna round: R95, input ligand: microRNA oligo, concentration not stated
[5] = input ligand: microRNA oligo, concentration not stated

Sequence	apparent KD of MS2 coat protein [1]	apparent KD of MS2 coat protein [2]	apparent KD of MS2 coat protein ([3]; input ligand: FMN 200 uM)	apparent KD of MS2 coat protein [3, 5]	apparent KD of MS2 coat protein ([3]; input ligand: none)	further results
AGAAAGUCAGGAUAUACGAAAAAGAAAAAAGACGAGAACGGACAUGAGGAUCACCCAUGUAGAAGGGACAAGAA [Diamond 14]	0.0664 µM	0.0514 µM	–	–	–	–
AGUCUGAGAGGAUAUACAUGAAAAAAAAAAGUAAGAUCCCUACAUGAGGAUCACCCAUGUAGAAGGCUCUGACA [Ex2 Design 145: Sub-opt 9]	0.0314 µM	0.0294 µM	–	–	–	–
GCAAAGUGAGGAUAUACGCGAACAAUAAAAAUAAAGAAAGCGUAGAAGGCACAUGAGGAUCACCCAUGUCCAGC [Mat - Exaclusion 4 - Eli mod - D78]	0.0235 µM	0.0259 µM	–	–	–	–
AAAAAACAUGAGGAUCACCCAUGUCAGGAUAUGCCAACCUAAAAAAAAAAAAAAAAACGUAGAAGGGACAAAAA [Bilbo Confounded 2 - Jieux - Exclusion 1]	0.0287 µM	0.0235 µM	–	–	–	–
AAAAACCUAGGAUAUACAUGAGGAUCACCCAUGUAAAGAAACAAAAAGGGAAACACAAGUAGAAGGAGGAAGAA [JR_Exc003_Sub1203]	0.0226 µM	0.0274 µM	–	–	–	–
CCCAUGUCAGGAUAUCAGUAGUAAAAAAAAAAAAUUACUACUGAGAAGGGACAUGAGGAUCACCCAUGUUCCAA [EX4 318: Super Stable 18]	0.0583 µM	0.053 µM	–	–	–	–
AAGAAGUGAGGAUAUGCUGCUCGUCACAAAAGUGAUGAGUAGCAGAAGGCACAUGAGGAUCACCCAUGUAAAGA [JL eternac mod 1]	0.0406 µM	0.0488 µM	–	–	–	–
AGAACACAUGAGGAUCACCCAUGUCAGGAUAUUCAAACAAAAACAAAACAAAACAAACGAAGAAGGGACAAAAG [May 2]	0.0323 µM	0.036 µM	–	–	–	–
ACAGCUGAAGGAUAUACUUGGAAAAAAAAAAAAAAAAAAAAACAUGAGGAUCACCCAUGUAGAAGGUCAGCUGA [Brourd - Exclusion 2 - Sub 2]	0.0503 µM	–	–	–	–	–
UGGAUCUAGGCUUGCCUGGGUCCAUGCUGACAUGAGGAUCACCCAUGUGCAUUCUAUAAGCUUUUUGCUUGUCAGCU (puzzle: Sensor for hsa-mir-208a)	–	–	–	–	–	apparent KD of MS2 coat protein ([3]; Eterna round: R95, input ligand: FMN 200 uM): 0.373 µM; apparent KD of MS2 coat protein [3, 4]: 0.091 µM; apparent KD of MS2 coat protein ([3]; Eterna round: R95, input ligand: none): 0.441 µM
AUAAAACAUGAGGAUCACCCAUGUCAACAAAGUCGAGGAUAUGGGCAAAUAAAAUAAGAACCAGAAGGCGAAUAUU [salish99_ss1_r3_037] (Eterna round: R96, puzzle: Same State 1)	–	–	0.0438 µM	0.262 µM	0.261 µM	–
UGGUACAUGGGAGGAUAUCCUCAGGAGACAUGAGGAUCACCCAUGUAAUAUAAGCCGAAAGGCAUGGAGAAGGCCCAUGUACCU [JL SSNG1 3.81] (Eterna round: R96, puzzle: Same State NG 2)	–	–	0.0276 µM	0.15 µM	0.167 µM	–
CCGCUCCGUGGAGGAUAUGGGCCUGCCCGGGAUACCGGGCCUAACACAUGAGGAUCACCCAUGUCCCAGAAGGCCGCUGGAGCC [Rasoleis] (Eterna round: R96, puzzle: Same State NG 2)	–	–	0.0189 µM	0.0851 µM	0.0582 µM	–
GUCAGCGAUUGAGGAUAUCACGUCGUUUAGACGUGAGAAGGCGAUCAUAACAUGAGGAUCACCCAUGUAUUACAUGAAGCUGAC [SSNG1/5-A3] (Eterna round: R96, puzzle: Same State NG 1)	–	–	0.0172 µM	0.0201 µM	0.0326 µM	–
AAUUAAGAUCGAGGAUAUCACGUCGAUUAGACGUGAGAAGGCGAUCAUAACAUGAGGAUCACCCAUGUAUUACAUGAAUUAAUU [SSNG1/4-B2] (Eterna round: R96, puzzle: Same State NG 1)	–	–	0.0334 µM	0.0267 µM	0.0366 µM	–
AUUAAACAUGAGGAUCACCCAUGUCAACAAAGUCGAGGAUAUGGGCAUAUUAUCUUAUAACCAGAAGGCGAAUAAU [salish99_ss1_r3_086] (puzzle: Same State 1)	–	–	–	–	–	apparent KD of MS2 coat protein [3, 4]: 0.155 µM
UAUCGUUUGAUAGGAUAUCGCUAUACAUGAGGAUCACCCAUGUUUACCACGCUGGUUUUUCAUACCGAGAAGGAUUCUGAUGAG [salish99_SSNG02_r04_005] (Eterna round: R96, puzzle: Same State NG 2)	–	–	0.0363 µM	0.0332 µM	0.0422 µM	–
